From patent US20220008527A1 (AGENUS, published 2022)

B1: PEP027 (peptide)
peptide: FFRKNFLRLTF
notes: Synthetic peptide
B2: PEP006 (peptide)
peptide: FFRKNWLRLTW
notes: Synthetic peptide
B3: PEP057 (peptide)
peptide: FFRKNWLKLRW
notes: Synthetic peptide
B4: PEP055 (peptide)
peptide: FFRKNWLKLKW
notes: Synthetic peptide
B5: PEP004 (peptide)
peptide: FFRKNLLRWTG
notes: Synthetic peptide
B6: PEP011 (peptide)
peptide: FFRKNWLRLKW
notes: Synthetic peptide
B7: PEP001 (peptide)
peptide: FFRKNLLRLTG
notes: Synthetic peptide
B8: PEP008 (peptide)
peptide: FFRKFWLRLTW
notes: Synthetic peptide
B9: PEP155 (peptide)
peptide: FFRKNLLRLTW
notes: Synthetic peptide
B10: PEP010 (peptide)
peptide: FFRKNWLRLFW
notes: Synthetic peptide
B11: PEP012 (peptide)
peptide: FFRKNWLKLTW
notes: Synthetic peptide
B12: PEP014 (peptide)
peptide: FFRKQWLRLTW
notes: Synthetic peptide
B13: PEP009 (peptide)
peptide: FFRKNWLRLLW
notes: Synthetic peptide
B14: PEP003 (peptide)
peptide: FFRKNWLLLTW
notes: Synthetic peptide
B15: PEP028 (peptide)
peptide: FRNWLRLTW
notes: Synthetic peptide
B16: PEP002 (peptide)
peptide: FFRKNRLLLTG
notes: Synthetic peptide
B17: PEP005 (peptide)
peptide: FFRKNRLWLTG
notes: Synthetic peptide
B18: PEP013 (peptide)
peptide: FFRKNWIRITW
notes: Synthetic peptide
B19: PEP058 (peptide)
peptide: FFRKNWLKLWK
notes: Synthetic peptide
B20: polypeptide LGVVRPRALHRELDLVDDSPTPGSPGSFFRKNWLRLTW (SEQ ID NO: 77) (peptide)
peptide: LGVVRPRALHRELDLVDDSPTPGSPGSFFRKNWLRLTW
notes: also called polypeptide comprising PEP006; PEP006-containing polypeptide

Each binder was assayed against T1, recombinant human heat shock cognate 71 kDa protein (Hsc70) (human, UniProt P11142 1-646, limits assumed) (assay: SEC of peptide-Hsc70 mixture; peptide:Hsc70 molar ratio 2:1).
T1 construct: also called rhHsc70; human Hsc70
T1 sequence (P11142 whole entry): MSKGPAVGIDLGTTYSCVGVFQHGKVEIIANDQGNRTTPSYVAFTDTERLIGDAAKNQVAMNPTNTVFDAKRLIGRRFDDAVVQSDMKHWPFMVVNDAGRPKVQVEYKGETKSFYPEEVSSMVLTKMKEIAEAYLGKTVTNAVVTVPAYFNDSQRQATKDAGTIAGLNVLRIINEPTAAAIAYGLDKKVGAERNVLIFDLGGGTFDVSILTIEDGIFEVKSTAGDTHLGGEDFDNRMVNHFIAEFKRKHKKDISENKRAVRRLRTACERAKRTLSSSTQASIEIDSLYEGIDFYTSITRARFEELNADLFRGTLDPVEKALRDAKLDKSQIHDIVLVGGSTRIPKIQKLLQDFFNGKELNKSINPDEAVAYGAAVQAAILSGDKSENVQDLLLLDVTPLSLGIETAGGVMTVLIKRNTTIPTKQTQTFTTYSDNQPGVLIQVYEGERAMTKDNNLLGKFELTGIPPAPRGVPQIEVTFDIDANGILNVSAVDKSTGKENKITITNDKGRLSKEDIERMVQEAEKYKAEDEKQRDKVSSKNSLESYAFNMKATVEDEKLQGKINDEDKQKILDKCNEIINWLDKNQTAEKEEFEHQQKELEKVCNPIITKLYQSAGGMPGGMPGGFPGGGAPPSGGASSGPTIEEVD
For B1, the “Percent complexation with Hsc70” value was 85.6%.
B2 was tested, and the “Percent complexation with Hsc70” value was 88.3%.
In the case of B3, the “Percent complexation with Hsc70” value is reported as 82.8%.
B4 was tested, and the “Percent complexation with Hsc70” value was 83.7%.
B5 was tested, and the “Percent complexation with Hsc70” value was 62.5%.
In the case of B6, the “Percent complexation with Hsc70” value is reported as 87.8%.
In the case of B7, the “Percent complexation with Hsc70” value is reported as 82.5%.
For B8, the “Percent complexation with Hsc70” value was 79.1%.
B9 was tested, and the “Percent complexation with Hsc70” value was 82.9%.
In the case of B10, the “Percent complexation with Hsc70” value is reported as 79.3%.
In the case of B11, the “Percent complexation with Hsc70” value is reported as 86.2%.
B12 was tested, and the “Percent complexation with Hsc70” value was 88.1%.
In the case of B13, the “Percent complexation with Hsc70” value is reported as 85.3%.
B14 was tested, and the “Percent complexation with Hsc70” value was 81.3%.
B15 was tested, and the “Percent complexation with Hsc70” value was 84.1%.
For B16, the “Percent complexation with Hsc70” value was 64.8%.
With B17 the “Percent complexation with Hsc70” value was 67.6%.
With B18 the “Percent complexation with Hsc70” value was 81.9%.
With B19 the “Percent complexation with Hsc70” value was 78.8%.

The binders below were run against T1, recombinant human heat shock cognate 71 … (assay: SEC of peptide-Hsc70 mixture; peptide:Hsc70 molar ratio 0.25:1).
B1 was tested, and the “Percent complexation with Hsc70” value was 19.1%.
With B2 the “Percent complexation with Hsc70” value was 25.4%.
For B3, the “Percent complexation with Hsc70” value was 24.9%.
B4 was tested, and the “Percent complexation with Hsc70” value was 24.1%.
With B5 the “Percent complexation with Hsc70” value was 15.4%.
With B6 the “Percent complexation with Hsc70” value was 31.2%.
B7 was tested, and the “Percent complexation with Hsc70” value was 23.4%.
B8 was tested, and the “Percent complexation with Hsc70” value was 24.4%.
In the case of B9, the “Percent complexation with Hsc70” value is reported as 22.5%.
For B10, the “Percent complexation with Hsc70” value was 19.1%.
For B11, the “Percent complexation with Hsc70” value was 29.9%.
For B12, the “Percent complexation with Hsc70” value was 29.3%.
In the case of B13, the “Percent complexation with Hsc70” value is reported as 32.8%.
For B14, the “Percent complexation with Hsc70” value was 26.8%.
B15 was tested, and the “Percent complexation with Hsc70” value was 24%.
In the case of B16, the “Percent complexation with Hsc70” value is reported as 19.2%.
For B17, the “Percent complexation with Hsc70” value was 16%.
In the case of B18, the “Percent complexation with Hsc70” value is reported as 25.6%.
B19 was tested, and the “Percent complexation with Hsc70” value was 22.7%.

These binders were tested against T1, recombinant human heat shock cognate 71 … (assay: SEC of peptide-Hsc70 mixture; peptide:Hsc70 molar ratio 0.5:1).
For B1, the “Percent complexation with Hsc70” value was 49%.
With B2 the “Percent complexation with Hsc70” value was 53.4%.
In the case of B3, the “Percent complexation with Hsc70” value is reported as 50%.
In the case of B4, the “Percent complexation with Hsc70” value is reported as 52.2%.
In the case of B5, the “Percent complexation with Hsc70” value is reported as 29%.
For B6, the “Percent complexation with Hsc70” value was 58.2%.
In the case of B7, the “Percent complexation with Hsc70” value is reported as 44.7%.
In the case of B8, the “Percent complexation with Hsc70” value is reported as 38.3%.
With B9 the “Percent complexation with Hsc70” value was 48.1%.
With B10 the “Percent complexation with Hsc70” value was 42.2%.
With B11 the “Percent complexation with Hsc70” value was 58.2%.
For B12, the “Percent complexation with Hsc70” value was 54.4%.
For B13, the “Percent complexation with Hsc70” value was 63.5%.
B14 was tested, and the “Percent complexation with Hsc70” value was 45.6%.
For B15, the “Percent complexation with Hsc70” value was 46.4%.
With B16 the “Percent complexation with Hsc70” value was 32%.
In the case of B17, the “Percent complexation with Hsc70” value is reported as 32.7%.
With B18 the “Percent complexation with Hsc70” value was 48.3%.
B19 was tested, and the “Percent complexation with Hsc70” value was 43.5%.

These binders were tested against T1, recombinant human heat shock cognate 71 … (assay: SEC of peptide-Hsc70 mixture; peptide:Hsc70 molar ratio 1:1).
B1 was tested, and the “Percent complexation with Hsc70” value was 77%.
In the case of B2, the “Percent complexation with Hsc70” value is reported as 81.5%.
With B3 the “Percent complexation with Hsc70” value was 72.2%.
For B4, the “Percent complexation with Hsc70” value was 75.9%.
B5 was tested, and the “Percent complexation with Hsc70” value was 46.8%.
For B6, the “Percent complexation with Hsc70” value was 81.6%.
With B7 the “Percent complexation with Hsc70” value was 68.1%.
B8 was tested, and the “Percent complexation with Hsc70” value was 61.8%.
For B9, the “Percent complexation with Hsc70” value was 75.6%.
In the case of B10, the “Percent complexation with Hsc70” value is reported as 64.9%.
In the case of B11, the “Percent complexation with Hsc70” value is reported as 79.2%.
B12 was tested, and the “Percent complexation with Hsc70” value was 80.9%.
B13 was tested, and the “Percent complexation with Hsc70” value was 81%.
For B14, the “Percent complexation with Hsc70” value was 67.2%.
In the case of B15, the “Percent complexation with Hsc70” value is reported as 75.6%.
For B16, the “Percent complexation with Hsc70” value was 48.7%.
In the case of B17, the “Percent complexation with Hsc70” value is reported as 54.8%.
B18 was tested, and the “Percent complexation with Hsc70” value was 69.6%.
For B19, the “Percent complexation with Hsc70” value was 66.5%.

What follows are binders tested against T1, recombinant human heat shock cognate 71 … (assay: size exclusion chromatography of polypeptide-Hsc70 mixtures, molar ratios 0.125:1 to 4:1 (FIG. 3A)).
B20: binds.

These binders were tested against T1, recombinant human heat shock cognate 71 … (assay: SEC of peptide-Hsc70 mixture; peptide:Hsc70 molar ratio 4:1).
B1 was tested, and the “Percent complexation with Hsc70” value was 90%.
With B2 the “Percent complexation with Hsc70” value was 91.8%.
For B3, the “Percent complexation with Hsc70” value was 88.3%.
B4 was tested, and the “Percent complexation with Hsc70” value was 86.3%.
With B5 the “Percent complexation with Hsc70” value was 75.3%.
In the case of B6, the “Percent complexation with Hsc70” value is reported as 90.4%.
B7 was tested, and the “Percent complexation with Hsc70” value was 90.1%.
With B8 the “Percent complexation with Hsc70” value was 81.6%.
B9 was tested, and the “Percent complexation with Hsc70” value was 86.6%.
B10 was tested, and the “Percent complexation with Hsc70” value was 86.5%.
B11 was tested, and the “Percent complexation with Hsc70” value was 89.5%.
With B12 the “Percent complexation with Hsc70” value was 90.3%.
For B13, the “Percent complexation with Hsc70” value was 89%.
For B14, the “Percent complexation with Hsc70” value was 87.6%.
In the case of B15, the “Percent complexation with Hsc70” value is reported as 87.5%.
In the case of B16, the “Percent complexation with Hsc70” value is reported as 78.8%.
In the case of B17, the “Percent complexation with Hsc70” value is reported as 77.6%.
With B18 the “Percent complexation with Hsc70” value was 87.7%.
With B19 the “Percent complexation with Hsc70” value was 83.9%.
